Results published in US10941182 (Amgen, dated 2021).
Starred links: 1 amine or outer side, 2 acyl side, 3 side chain; linkers in the order of their positions; H or OH if unused. Non-standard residues stand in square brackets, D forms with d. No end group written: not given here. *: point of attachment. dBip = N[C@H](Cc1ccc(-c2ccccc2)cc1)C(=O)O; Oic = O=C(O)[C@@H]1C[C@@H]2CCCC[C@@H]2N1; Phe(4-Cl) = N[C@@H](Cc1ccc(Cl)cc1)C(=O)O; dPhe(4-Cl) = N[C@H](Cc1ccc(Cl)cc1)C(=O)O; Phe(4-I) = N[C@@H](Cc1ccc(I)cc1)C(=O)O; γGlu = O=C(O)[C@H](CCC(=O)[*:2])N[*:1]; d1Nal = N[C@H](Cc1cccc2ccccc12)C(=O)O; NMeR = CN[C@@H](CCCNC(=N)N)C(=O)O; Tridecanoyl = CCCCCCCCCCCCC(=O)*; hArg = N=C(N)NCCCC[C@H](N)C(=O)O; Cha = N[C@@H](CC1CCCCC1)C(=O)O; NMeL = CN[C@@H](CC(C)C)C(=O)O; Nle = CCCC[C@H](N)C(=O)O; Orn = NCCC[C@H](N)C(=O)O; AEEA = NCCOCCOCC(=O)O; BLeu = β-leucine

T1: rat APJ receptor (rat, UniProt Q9JHG3 1-377)
T1 sequence (looked up): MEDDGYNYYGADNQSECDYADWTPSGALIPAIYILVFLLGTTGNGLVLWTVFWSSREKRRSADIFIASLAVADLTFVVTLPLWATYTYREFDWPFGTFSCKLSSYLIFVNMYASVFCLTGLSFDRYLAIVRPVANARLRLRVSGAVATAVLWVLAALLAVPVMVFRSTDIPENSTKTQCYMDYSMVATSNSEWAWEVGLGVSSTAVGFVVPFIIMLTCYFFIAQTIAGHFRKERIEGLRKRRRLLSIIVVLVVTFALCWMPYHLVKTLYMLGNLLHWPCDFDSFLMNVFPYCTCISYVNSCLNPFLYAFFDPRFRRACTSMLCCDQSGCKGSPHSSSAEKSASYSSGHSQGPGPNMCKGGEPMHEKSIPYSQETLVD

T2: human APJ receptor (human, UniProt P35414 1-380)
T2 sequence (looked up): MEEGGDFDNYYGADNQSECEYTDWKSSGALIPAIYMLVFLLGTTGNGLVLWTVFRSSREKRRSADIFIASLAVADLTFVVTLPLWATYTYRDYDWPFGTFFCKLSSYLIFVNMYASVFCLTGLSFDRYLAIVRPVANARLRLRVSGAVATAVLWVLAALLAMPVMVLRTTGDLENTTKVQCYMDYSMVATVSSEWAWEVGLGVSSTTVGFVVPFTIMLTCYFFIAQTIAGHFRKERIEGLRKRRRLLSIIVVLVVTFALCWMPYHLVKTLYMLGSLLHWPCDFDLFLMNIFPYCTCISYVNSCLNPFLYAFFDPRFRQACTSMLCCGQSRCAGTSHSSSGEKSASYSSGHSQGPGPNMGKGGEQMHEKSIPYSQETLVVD

B1: apelin polypeptide SEQ ID NO: 21 (peptide)
peptide: Ac-[hArg][hArg]Q[hArg][Oic][dR][NMeL]SHKG[Oic][Phe(4-I)]P[dBip]-OH
SMILES: CC(=O)N[C@@H](CCCCNC(=N)N)C(=O)N[C@@H](CCCCNC(=N)N)C(=O)N[C@@H](CCC(N)=O)C(=O)N[C@@H](CCCCNC(=N)N)C(=O)N1[C@H](C(=O)N[C@H](CCCNC(=N)N)C(=O)N(C)[C@@H](CC(C)C)C(=O)N[C@@H](CO)C(=O)N[C@@H](Cc2c[nH]cn2)C(=O)N[C@@H](CCCCN)C(=O)NCC(=O)N2[C@H](C(=O)N[C@@H](Cc3ccc(I)cc3)C(=O)N3CCC[C@H]3C(=O)N[C@H](Cc3ccc(-c4ccccc4)cc3)C(=O)O)C[C@@H]3CCCC[C@@H]32)C[C@@H]2CCCC[C@@H]21
B2: apelin polypeptide SEQ ID NO: 285 (peptide)
peptide: Tridecanoyl-[γGlu][AEEA][AEEA]Q[dR]P[NMeR][Cha]SHKG[Oic][Nle][d1Nal]-OH
SMILES: CCCCCCCCCCCCC(=O)N[C@@H](CCC(=O)NCCOCCOCC(=O)NCCOCCOCC(=O)N[C@@H](CCC(N)=O)C(=O)N[C@H](CCCNC(=N)N)C(=O)N1CCC[C@H]1C(=O)N(C)[C@@H](CCCNC(=N)N)C(=O)N[C@@H](CC1CCCCC1)C(=O)N[C@@H](CO)C(=O)N[C@@H](Cc1c[nH]cn1)C(=O)N[C@@H](CCCCN)C(=O)NCC(=O)N1[C@H](C(=O)N[C@@H](CCCC)C(=O)N[C@H](Cc2cccc3ccccc23)C(=O)O)C[C@@H]2CCCC[C@@H]21)C(=O)O
B3: apelin polypeptide SEQ ID NO: 671 (peptide)
peptide: [Orn]F[hArg][hArg]Q[NMeR]P[hArg][Cha]SHKG[Oic][Nle]P[Phe(4-Cl)]
B4: apelin polypeptide SEQ ID NO: 279 (peptide)
peptide: Tridecanoyl-[γGlu][AEEA][AEEA]Q[NMeR]P[dR][Cha]SHKG[Oic][Nle]P[Phe(4-Cl)]-OH
SMILES: CCCCCCCCCCCCC(=O)N[C@@H](CCC(=O)NCCOCCOCC(=O)NCCOCCOCC(=O)N[C@@H](CCC(N)=O)C(=O)N(C)[C@@H](CCCNC(=N)N)C(=O)N1CCC[C@H]1C(=O)N[C@H](CCCNC(=N)N)C(=O)N[C@@H](CC1CCCCC1)C(=O)N[C@@H](CO)C(=O)N[C@@H](Cc1c[nH]cn1)C(=O)N[C@@H](CCCCN)C(=O)NCC(=O)N1[C@H](C(=O)N[C@@H](CCCC)C(=O)N2CCC[C@H]2C(=O)N[C@@H](Cc2ccc(Cl)cc2)C(=O)O)C[C@@H]2CCCC[C@@H]21)C(=O)O
B5: apelin polypeptide SEQ ID NO: 284 (peptide)
peptide: Tridecanoyl-[γGlu][AEEA][AEEA]Q[dR]P[NMeR][Cha]SHKG[Oic][Nle]P[dPhe(4-Cl)]-OH
SMILES: CCCCCCCCCCCCC(=O)N[C@@H](CCC(=O)NCCOCCOCC(=O)NCCOCCOCC(=O)N[C@@H](CCC(N)=O)C(=O)N[C@H](CCCNC(=N)N)C(=O)N1CCC[C@H]1C(=O)N(C)[C@@H](CCCNC(=N)N)C(=O)N[C@@H](CC1CCCCC1)C(=O)N[C@@H](CO)C(=O)N[C@@H](Cc1c[nH]cn1)C(=O)N[C@@H](CCCCN)C(=O)NCC(=O)N1[C@H](C(=O)N[C@@H](CCCC)C(=O)N2CCC[C@H]2C(=O)N[C@H](Cc2ccc(Cl)cc2)C(=O)O)C[C@@H]2CCCC[C@@H]21)C(=O)O
B6: apelin polypeptide SEQ ID NO: 672 (peptide)
peptide: [Orn]F[hArg][hArg]Q[NMeR]P[NMeR][Cha]SHKG[Oic][Nle]P[Phe(4-Cl)]
B7: apelin polypeptide SEQ ID NO: 280 (peptide)
peptide: Tridecanoyl-[γGlu][AEEA][AEEA][dQ][NMeR]P[dR][Cha]SHKG[Oic][Nle]P[Phe(4-Cl)]-OH
SMILES: CCCCCCCCCCCCC(=O)N[C@@H](CCC(=O)NCCOCCOCC(=O)NCCOCCOCC(=O)N[C@H](CCC(N)=O)C(=O)N(C)[C@@H](CCCNC(=N)N)C(=O)N1CCC[C@H]1C(=O)N[C@H](CCCNC(=N)N)C(=O)N[C@@H](CC1CCCCC1)C(=O)N[C@@H](CO)C(=O)N[C@@H](Cc1c[nH]cn1)C(=O)N[C@@H](CCCCN)C(=O)NCC(=O)N1[C@H](C(=O)N[C@@H](CCCC)C(=O)N2CCC[C@H]2C(=O)N[C@@H](Cc2ccc(Cl)cc2)C(=O)O)C[C@@H]2CCCC[C@@H]21)C(=O)O
B8: apelin polypeptide SEQ ID NO: 669 (peptide)
peptide: [Orn]F[NMeR][hArg]Q[hArg]P[hArg][Cha]SHKG[Oic][Nle]P[Phe(4-Cl)]
B9: apelin polypeptide SEQ ID NO: 22 (peptide)
peptide: Ac-[hArg][hArg]Q[dR]P[NMeR][Cha]SHKG[Oic][Phe(4-I)]P[dBip]-OH
SMILES: CC(=O)N[C@@H](CCCCNC(=N)N)C(=O)N[C@@H](CCCCNC(=N)N)C(=O)N[C@@H](CCC(N)=O)C(=O)N[C@H](CCCNC(=N)N)C(=O)N1CCC[C@H]1C(=O)N(C)[C@@H](CCCNC(=N)N)C(=O)N[C@@H](CC1CCCCC1)C(=O)N[C@@H](CO)C(=O)N[C@@H](Cc1c[nH]cn1)C(=O)N[C@@H](CCCCN)C(=O)NCC(=O)N1[C@H](C(=O)N[C@@H](Cc2ccc(I)cc2)C(=O)N2CCC[C@H]2C(=O)N[C@H](Cc2ccc(-c3ccccc3)cc2)C(=O)O)C[C@@H]2CCCC[C@@H]21
B10: apelin polypeptide SEQ ID NO: 670 (peptide)
peptide: [Orn]F[hArg][NMeR]Q[hArg]P[hArg][Cha]SHKG[Oic][Nle]P[Phe(4-Cl)]
B11: apelin polypeptide SEQ ID NO: 281 (peptide)
peptide: Tridecanoyl-[γGlu][AEEA][AEEA][dQ][hArg]P[dR][BLeu]SHKG[Oic][Nle]P[dPhe(4-Cl)]-OH
B12: apelin polypeptide SEQ ID NO: 277 (peptide)
peptide: Tridecanoyl-[γGlu][AEEA][AEEA][dL][hArg]P[dR][Cha]SHKG[Oic][Nle]P[Phe(4-Cl)]-OH
SMILES: CCCCCCCCCCCCC(=O)N[C@@H](CCC(=O)NCCOCCOCC(=O)NCCOCCOCC(=O)N[C@H](CC(C)C)C(=O)N[C@@H](CCCCNC(=N)N)C(=O)N1CCC[C@H]1C(=O)N[C@H](CCCNC(=N)N)C(=O)N[C@@H](CC1CCCCC1)C(=O)N[C@@H](CO)C(=O)N[C@@H](Cc1c[nH]cn1)C(=O)N[C@@H](CCCCN)C(=O)NCC(=O)N1[C@H](C(=O)N[C@@H](CCCC)C(=O)N2CCC[C@H]2C(=O)N[C@@H](Cc2ccc(Cl)cc2)C(=O)O)C[C@@H]2CCCC[C@@H]21)C(=O)O
B13: apelin polypeptide SEQ ID NO: 282 (peptide)
peptide: Tridecanoyl-[γGlu][AEEA][AEEA][dQ][hArg]P[dR][Cha]SHKG[Oic][Nle][Phe(4-Cl)]-OH
SMILES: CCCCCCCCCCCCC(=O)N[C@@H](CCC(=O)NCCOCCOCC(=O)NCCOCCOCC(=O)N[C@H](CCC(N)=O)C(=O)N[C@@H](CCCCNC(=N)N)C(=O)N1CCC[C@H]1C(=O)N[C@H](CCCNC(=N)N)C(=O)N[C@@H](CC1CCCCC1)C(=O)N[C@@H](CO)C(=O)N[C@@H](Cc1c[nH]cn1)C(=O)N[C@@H](CCCCN)C(=O)NCC(=O)N1[C@H](C(=O)N[C@@H](CCCC)C(=O)N[C@@H](Cc2ccc(Cl)cc2)C(=O)O)C[C@@H]2CCCC[C@@H]21)C(=O)O
B14: apelin polypeptide SEQ ID NO: 278 (peptide)
peptide: Tridecanoyl-[γGlu][AEEA][AEEA][BLeu][hArg]P[dR][Cha]SHKG[Oic][Nle]P[Phe(4-Cl)]-OH
B15: apelin polypeptide SEQ ID NO: 283 (peptide)
peptide: Tridecanoyl-[γGlu][AEEA][AEEA][dQ][hArg]P[dR][Cha]SHKG[Oic][Nle][dPhe(4-Cl)]-OH
SMILES: CCCCCCCCCCCCC(=O)N[C@@H](CCC(=O)NCCOCCOCC(=O)NCCOCCOCC(=O)N[C@H](CCC(N)=O)C(=O)N[C@@H](CCCCNC(=N)N)C(=O)N1CCC[C@H]1C(=O)N[C@H](CCCNC(=N)N)C(=O)N[C@@H](CC1CCCCC1)C(=O)N[C@@H](CO)C(=O)N[C@@H](Cc1c[nH]cn1)C(=O)N[C@@H](CCCCN)C(=O)NCC(=O)N1[C@H](C(=O)N[C@@H](CCCC)C(=O)N[C@H](Cc2ccc(Cl)cc2)C(=O)O)C[C@@H]2CCCC[C@@H]21)C(=O)O

Target: T1, rat APJ receptor
Assay: cell-based or functional assay

EC50 Rat APJ Receptor [nM]	Binder
1.8	B1
122	B2
0.387	B3
19.3	B4
> 4170	B5
0.845	B6
4.47	B7
5.59	B8
4.52	B9
0.254	B10
87.3	B11
20.9	B12
13.3	B13
14.5	B14
15.6	B15

Target: T2, human APJ receptor
Assay: cell-based or functional assay

EC50 Human APJ Receptor [nM]	Binder
0.57	B1
8.22	B2
0.162	B3
3.29	B4
> 4170	B5
0.445	B6
2.04	B7
5.3	B8
1.52	B9
0.131	B10
14.8	B11
16.1	B12
5.79	B13
10.1	B14
9.74	B15
